# According to patent publication US20250002610A1 (Genmab, published 2025):
# Where a chain is given by its changes, count along the chain named.
# T1: human FAPα (Fibroblast activation protein alpha), cell surface expressed (human, UniProt Q12884 1-760)
# T1 construct: Endogenous on human lung fibroblasts and CAFs
# T1 sequence: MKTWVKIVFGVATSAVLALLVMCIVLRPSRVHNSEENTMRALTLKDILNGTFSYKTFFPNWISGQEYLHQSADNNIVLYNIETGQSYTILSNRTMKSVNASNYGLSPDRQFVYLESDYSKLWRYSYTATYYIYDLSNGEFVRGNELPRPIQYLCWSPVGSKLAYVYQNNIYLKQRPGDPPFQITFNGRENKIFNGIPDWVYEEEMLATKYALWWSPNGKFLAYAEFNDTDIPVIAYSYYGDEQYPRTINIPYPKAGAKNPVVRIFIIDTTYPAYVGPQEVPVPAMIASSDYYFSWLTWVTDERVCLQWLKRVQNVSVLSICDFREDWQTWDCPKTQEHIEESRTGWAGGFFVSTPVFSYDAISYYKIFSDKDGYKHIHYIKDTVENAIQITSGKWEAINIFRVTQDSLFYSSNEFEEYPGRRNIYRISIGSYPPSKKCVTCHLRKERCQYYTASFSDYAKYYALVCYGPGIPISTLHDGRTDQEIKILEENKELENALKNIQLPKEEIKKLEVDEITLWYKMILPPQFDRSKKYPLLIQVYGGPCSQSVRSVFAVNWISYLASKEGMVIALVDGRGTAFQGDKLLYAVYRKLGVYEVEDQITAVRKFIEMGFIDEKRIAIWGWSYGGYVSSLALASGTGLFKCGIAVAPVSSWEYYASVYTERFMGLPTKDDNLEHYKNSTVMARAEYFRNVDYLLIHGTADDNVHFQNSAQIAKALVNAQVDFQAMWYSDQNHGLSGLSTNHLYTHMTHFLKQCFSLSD
# T2: human DR4 (Death Receptor 4), cell surface expressed on human tumor cell lines (human, UniProt O00220 24-468)
# T2 construct: also called TNFRSF10A; TRAIL-R1
# T2 sequence: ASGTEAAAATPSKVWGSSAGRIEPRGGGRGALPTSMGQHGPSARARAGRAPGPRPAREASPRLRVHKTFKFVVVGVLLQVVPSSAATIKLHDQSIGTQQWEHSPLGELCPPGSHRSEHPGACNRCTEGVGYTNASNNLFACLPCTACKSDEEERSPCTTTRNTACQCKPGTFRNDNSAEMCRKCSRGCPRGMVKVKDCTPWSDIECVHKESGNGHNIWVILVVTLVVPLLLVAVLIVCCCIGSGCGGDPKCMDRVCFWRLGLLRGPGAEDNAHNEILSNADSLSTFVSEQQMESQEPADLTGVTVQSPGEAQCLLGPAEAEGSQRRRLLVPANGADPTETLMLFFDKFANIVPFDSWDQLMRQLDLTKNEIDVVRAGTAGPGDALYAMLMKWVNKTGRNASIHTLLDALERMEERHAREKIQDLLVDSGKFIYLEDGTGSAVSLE
# B1: BisG1-FAPα-FEAL/b12-FEAR (bispecific antibody, human IgG1, kappa)
# heavy 1: EVQLLESGGGLVQPGGSPRLSCEASGFTFSSYALSWVRQAPGKGLEWVSAISGSGGGRYYADSVKGRFTISRDNSKNTLFLQMNSLRAEDTAVYYCAKEGYSSSGTYWDHWGQGTLVTVSSASTKGPSVFPLAPSSKSTSGGTAALGCLVKDYFPEPVTVSWNSGALTSGVHTFPAVLQSSGLYSLSSVVTVPSSSLGTQTYICNVNHKPSNTKVDKRVEPKSCDKTHTCPPCPAPEFEGGPSVFLFPPKPKDTLMISRTPEVTCVVVAVSHEDPEVKFNWYVDGVEVHNAKTKPREEQYNSTYRVVSVLTVLHQDWLNGKEYKCKVSNKALPAPIEKTISKAKGQPREPQVYTLPPSREEMTKNQVSLTCLVKGFYPSDIAVEWESNGQPENNYKTTPPVLDSDGSFLLYSKLTVDKSRWQQGNVFSCSVMHEALHNHYTQKSLSLSPG
# light 1: AIQMTQSPSSVSASVGDRVTITCRASQGVSSWLAWYQQKPGRAPKLLIYVASTLQSGVPSRFSGSGSGTDFTLTINSLQPEDFATYYCQQANSFPPTFGQGTRLEMKRTVAAPSVFIFPPSDEQLKSGTASVVCLLNNFYPREAKVQWKVDNALQSGNSQESVTEQDSKDSTYSLSSTLTLSKADYEKHKVYACEVTHQGLSSPVTKSFNRGEC
# heavy 2: QVQLVQSGAEVKKPGASVKVSCQASGYRFSNFVIHWVRQAPGQRFEWMGWINPYNGNKEFSAKFQDRVTFTADTSANTAYMELRSLRSADTAVYYCARVGPYSWDDSPQDNYYMDVWGKGTTVIVSSASTKGPSVFPLAPSSKSTSGGTAALGCLVKDYFPEPVTVSWNSGALTSGVHTFPAVLQSSGLYSLSSVVTVPSSSLGTQTYICNVNHKPSNTKVDKRVEPKSCDKTHTCPPCPAPEFEGGPSVFLFPPKPKDTLMISRTPEVTCVVVAVSHEDPEVKFNWYVDGVEVHNAKTKPREEQYNSTYRVVSVLTVLHQDWLNGKEYKCKVSNKALPAPIEKTISKAKGQPREPQVYTLPPSREEMTKNQVSLTCLVKGFYPSDIAVEWESNGQPENNYKTTPPVLDSDGSFFLYSRLTVDKSRWQQGNVFSCSVMHEALHNHYTQKSLSLSPG
# light 2: EIVLTQSPGTLSLSPGERATFSCRSSHSIRSRRVAWYQHKPGQAPRLVIHGVSNRASGISDRFSGSGSGTDFTLTITRVEPEDFALYYCQVYGASSYTFGQGTKLERKRTVAAPSVFIFPPSDEQLKSGTASVVCLLNNFYPREAKVQWKVDNALQSGNSQESVTEQDSKDSTYSLSSTLTLSKADYEKHKVYACEVTHQGLSSPVTKSFNRGEC
# notes: Fab-arm exchange of IgG1-FAPα-FEAL and IgG1-b12-FEAR
# B2: BisG1-b12-FERL/DR4-FERR (bispecific antibody, human IgG1, kappa, lambda)
# heavy 1: B1 heavy 2 with G246R, A275D, F415L, R419K
# light 1: B1 light 2
# heavy 2: QVQLQESGPGLVKPSGTLSLTCAVSGGSISSYSWWSWIRQPPGKGLEWIGELYHSGSTNYNPSLKSRVTISVDKSKNQFSLKLRSVTAADTAVYYCVRGVATIDYWGQGTLVTVSSASTKGPSVFPLAPSSKSTSGGTAALGCLVKDYFPEPVTVSWNSGALTSGVHTFPAVLQSSGLYSLSSVVTVPSSSLGTQTYICNVNHKPSNTKVDKRVEPKSCDKTHTCPPCPAPEFERGPSVFLFPPKPKDTLMISRTPEVTCVVVDVSHEDPEVKFNWYVDGVEVHNAKTKPREEQYNSTYRVVSVLTVLHQDWLNGKEYKCKVSNKALPAPIEKTISKAKGQPREPQVYTLPPSREEMTKNQVSLTCLVKGFYPSDIAVEWESNGQPENNYKTTPPVLDSDGSFFLYSRLTVDKSRWQQGNVFSCSVMHEALHNHYTQKSLSLSPG
# light 2: QSALTQPPSASGSPGQSVTISCTGTSSDVGGYNFVSWYQQDPGKAPKLLIYEVTKRPSGVPDRFSGSKSGNTASLTVSGLQAEDEADYYCSSYAGSNNVMFGGGTKLTVLGQPKAAPSVTLFPPSSEELQANKATLVCLISDFYPGAVTVAWKADSSPVKAGVETTTPSKQSNNKYAASSYLSLTPEQWKSHRSYSCQVTHEGSTVEKTVAPTECS
# notes: Fab-arm exchange of IgG1-b12-FERL and IgG1-DR4-FERR; also called bsIgG1-ctrl-FERLxDR4-FERR
# B3: IgG1-FAPα-FERL (antibody)
# heavy: B1 heavy 1 with G240R, A269D
# light: B1 light 1
# notes: Bivalent monoclonal IgG1 kappa
# B4: IgG1-DR4-FERR (antibody, V domains shown)
# VH: QVQLQESGPGLVKPSGTLSLTCAVSGGSISSYSWWSWIRQPPGKGLEWIGELYHSGSTNYNPSLKSRVTISVDKSKNQFSLKLRSVTAADTAVYYCVRGVATIDYWGQGTLVTVSS
# VL: QSALTQPPSASGSPGQSVTISCTGTSSDVGGYNFVSWYQQDPGKAPKLLIYEVTKRPSGVPDRFSGSKSGNTASLTVSGLQAEDEADYYCSSYAGSNNVMFGGGTKLTVLG
# notes: Bivalent monoclonal IgG1 lambda
# How the values were obtained:
# [1] = molecular target: T1, human FAPα (Fibroblast activation …); experiment: flow cytometry, Expi293F cells expressing human FAPα, n = 2
# Method: Binding of BisG1-FAPα-FERL/DR4-FERR, BisG1-FAPα-FEAL/b12-FEAR and IgG1-FAPα-FERL to FAPα of species commonly used for nonclinical toxicology studies was assessed by flow cytometry using Expi293F cells transiently expressing FAPα from different animal species. IgG1-b12 was included as negative control.
# Expi293F cells expressing recombinant FAPα from various species (human, cynomolgus monkey, dog, pig, rat or mouse) were seeded (20,000 cells/well) in 96-Well round bottom plates (Greiner Bio-one, Cat #650101). Antibody dilutions were prepared using FACS buffer, consisting of PBS (Capricorn Scientific, Cat #PBS-10XA, diluted to 1×PBS in distilled water)+1% BSA (Roche, Cat #10735086001)+0.02% Sodium Azide (Bio-World, Cat #41920044-3). Plates were centrifuged, supernatant was removed, and cells were resuspended in 100 μL of antibody dilutions (concentration range 30-0.00017 μg/mL with three-fold serial dilutions using FACS buffer) of BisG1-FAPα-FERL/DR4-FERR, BisG1-FAPα-FEAL/b12-FEAR, IgG1-FAPα-FERL and IgG1-b12 and incubated for 30 min at 4° C. […] After 30 min incubation at 4° C., cells were washed with FACS buffer and resuspended in FACS buffer supplemented with TO-PRO-3 Iodide viability marker (Invitrogen, Cat #T3605, diluted 1:4,000). Antibody binding to viable cells (gMFI of PE on TO-PRO-3 negative cells) was analyzed by flow cytometry on a FACS Celesta and FACS_Diva software (first two experiments) or iQue® 3 and FlowJo software (last experiment). gMFI was determined and visualized using GraphPad Prism. Binding curves were analyzed using nonlinear regression analysis. The concentration (pg/mL) at which 50% of the maximal effect was observed (EC₅₀) was derived from the fitted curves.
# [2] = molecular target: T2, human DR4 (Death Receptor 4), cell …; experiment: flow cytometry, PANC-1 cells, average ± SEM
# [3] = molecular target: T2, human DR4 (Death Receptor 4), cell …; experiment: flow cytometry, DLD-1 cells, n = 3
# [4] = molecular target: T2, human DR4 (Death Receptor 4), cell …; experiment: flow cytometry, A549 cells, n = 3
# [5] = molecular target: T2, human DR4 (Death Receptor 4), cell …; experiment: flow cytometry, MDA-MB-231 cells, average ± SEM
# [6] = molecular target: T2, human DR4 (Death Receptor 4), cell …; experiment: flow cytometry, MDA-MB-231 cells, n = 2
# [7] = molecular target: T2, human DR4 (Death Receptor 4), cell …; experiment: flow cytometry, A549 cells, average ± SEM
# [8] = molecular target: T2, human DR4 (Death Receptor 4), cell …; experiment: flow cytometry, A549 cells, n = 1
# [9] = molecular target: T2, human DR4 (Death Receptor 4), cell …; experiment: flow cytometry, PANC-1 cells, n = 3
# [10] = molecular target: T2, human DR4 (Death Receptor 4), cell …; experiment: flow cytometry, A549 cells, n = 2
# [11] = molecular target: T2, human DR4 (Death Receptor 4), cell …; experiment: flow cytometry, HCT-116 cells, average ± SEM
Binder,EC50 [1],EC50 [2],EC50 [3],EC50 [4],EC50 [5],EC50 [6],EC50 [7],EC50 [8],EC50 [9],EC50 [10],EC50 [11]
B1,0.16 µg/mL,,,,,,,,,,
B2,,1.63 µg/mL,0.64 µg/mL,0.78 µg/mL,1.02 µg/mL,1 µg/mL,0.78 µg/mL,0.89 µg/mL,1.44 µg/mL,0.68 µg/mL,0.57 µg/mL
B3,0.12 µg/mL,,,,,,,,,,
B4,,0.49 µg/mL,0.23 µg/mL,0.21 µg/mL,0.32 µg/mL,0.27 µg/mL,0.32 µg/mL,0.51 µg/mL,0.39 µg/mL,0.26 µg/mL,0.16 µg/mL
